The target of assay [1] is Milano Short Tail Fiber (STF), gp31 (Agrobacterium tumefaciens bacteriophage Milano). The assay is described as follows: cryo-EM structure; baseplate junction of purified native Milano virions in the extended state, single particle analysis with C3 symmetry, ~3.2 Å; distal parts of the receptor-binding proteins and the garland only rigid-body fitted with AlphaFold models.

Assay [2] addresses Milano tail tube protein, gp21 (Agrobacterium tumefaciens bacteriophage Milano). The assay can be described thus: cryo-EM structure; extended (pre-attachment) tail of purified native Milano virions; curved tail segments reconstructed with no imposed symmetry; the straight baseplate-proximal segment was extracted from the baseplate junction structure.
Assay [3] has as its target Milano Tail Spike Protein (TSP), gp124 (Agrobacterium tumefaciens bacteriophage Milano). The assay can be described thus: cryo-EM structure; baseplate junction of purified native Milano virions in the extended state, single particle analysis with C3 symmetry, ~3.2 Å; distal parts of the receptor-binding proteins and the garland only rigid-body fitted with AlphaFold models.

Take “Milano Short Tail Fiber (STF), gp31 (natural protein)”: the stoichiometry N – broadly, the number of molecules, sites or subunits per partner or assembly – in assay [1] came to 3.
Consider “Milano tail tube protein, gp21 (natural protein)”, for which the stoichiometry N in assay [2] was 6.
For “Milano Tail Spike Protein (TSP), gp124 (natural protein)”, the stoichiometry N in assay [3] was determined as 3.

These data come from publication PMC10811340.
